Tested on: target antigen-expressing cell line
Test: Jurkat NFAT-GFP assay, coculture with target cell lines expressing the respective target antigen (summary Table 10A)
Type: cell-based, human
Parameters: key: The signs +/−, +, 2+ etc. after the name of the cell lines indicate the relative degree of positivity on the Jurkat-NFAT-GFP assay as measured by the % GFP positive cells; +: relative degree of positivity on the Jurkat-NFAT-GFP assay as measured by the % GFP positive cells; 2+: relative degree of positivity on the Jurkat-NFAT-GFP assay as measured by the % GFP positive cells
Summary of the method: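 Read-out: % GFP+ cells by FACS. SIR-transduced, puromycin-selected Jurkat NFAT-GFP (IL-2 promoter reporter) cocultured ~4–18 h with target line, E:T ~1:2; parental cells as control; graded +/−, +, 2+ relative to parental.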

[1] = coculture with TF228.1.1.6 cells

| Molecule | NFAT-GFP ASSAY Positive Cell lines (coculture with HL2-3 cells) | NFAT-GFP ASSAY Positive Cell lines [1] | NFAT-GFP ASSAY Positive Cell lines (coculture with NALM6 cells) | also measured |
| --- | --- | --- | --- | --- |
| 121416-H05 (protein, Polynucleotide encoding a Synthetic Immune Receptor (SIR)) MALPVTALLLPLALLLHAARPLEGKPIPNPLLGLDSTGSGEDLKNVFPPEVAVFEPSKAEIAHTQKATLVCLATGFYPDHVELSWWVNGKEVHSGVCTDPQPLKEQPALNDSRYCLSSRLRVSATFWQNPRNHFRCQVQFYGLSENDEWTQDRAKPVTQIVSAEAWGRADCGITSASYHQGVLSATILYEILLGKATLYAVLVSALVLMAMVKRKDSRGRAKRSGSGATNFSLLKQAGDVEENPGPTSMALPVTALLLPLALLLHAARPDYIHVTQSPSSLSVSIGDRVTINCQTSQGVGSDLHWYQHKPGRAPKLLIHHASSVEDGVPSRFSGTGFHTSFNLTINDLQADDIGTYYCQVLQSFGRGSRLDTKGGGGSGGGGSGGGGSRAHLVQSGTAMKKPGASVRVSCQTSGYTFTAHILFWFRQAPGRGLEWVGWIKPQYGAVNFGGGFRDRVTLTRDVYREIAYMDIRGLKPDDTAVYYCARDRSYGDSSWALDAWGQGTTVVVSATREQKLISEEDGSGIQNPDPAVYQLRDSKSSDKSVCLFTDFDSQTNVSQSKDSDVYITDKCVLDMRSMDFKSNSAVAWSNKSDFACANAFNNSIIPEDTFFPSSDVPCDVKLVEKSFETDTNLNFQNLSVIGFRILLLKVAGFNLLMTLRLWSSRAKRSGSGVKQTLNFDLLKLAGDVESNPGPSRGHMTEYKPTVRLATRDDVPRAVRTLAAAFADYPATRHTVDPDRHIERVTELQELFLTRVGLDIGKVWVADDGAAVAVWTTPESVEAGAVFAEIGPRMAELSGSRLAAQQQMEGLLAPHRPKEPAWFLATVGVSPDHQGKGLGSAVVLPGVEAAERAGVPAFLETSAPRNLPFYERLGFTVTADVEVPEGPRTWCMTRKPGA | HL2-3 (+/−), | TF228.1.1.6 (+/−) | – | – |
| 071417-W08 (protein) MALPVTALLLPLALLLHAARPLEGKPIPNPLLGLDSTGSGEDLKNVFPPEVAVFEPSKAEIAHTQKATLVCLATGFYPDHVELSWWVNGKEVHSGVCTDPQPLKEQPALNDSRYCLSSRLRVSATFWQNPRNHFRCQVQFYGLSENDEWTQDRAKPVTQIVSAEAWGRADCGITSASYHQGVLSATILYEILLGKATLYAVLVSALVLMAMVKRKDSRGRAKRSGSGATNFSLLKQAGDVEENPGPTSMALPVTALLLPLALLLHAARPDVMLTQTPLSLPVSLGDQASISCRSSQSILHSTGDTYLEWYLQKPGQSPKLLINKVSNRLSGVPDRFSGSGSGTDFTLKISRVEAEDLGVYYCFQGSHVPWTFGGGTKLEIKRADAAPTVSIFPGGGGSGGGGSGGGGSQVKLQQSGPSLVKPGASVKMSCKASGYTFTDFYMKWVKQSHGKSLEWIGDINPNIGDTFYNQKFKGKATLTVDKSSSTAYMQLNSLTSEDSAVYFCSVGYFDVWGAGTTVTVSSTREQKLISEEDGSGIQNPDPAVYQLRDSKSSDKSVCLFTDFDSQTNVSQSKDSDVYITDKCVLDMRSMDFKSNSAVAWSNKSDFACANAFNNSIIPEDTFFPSSDVPCDVKLVEKSFETDTNLNFQNLSVIGFRILLLKVAGFNLLMTLRLWSSRAKRSGSGVKQTLNFDLLKLAGDVESNPGPSRGHMTEYKPTVRLATRDDVPRAVRTLAAAFADYPATRHTVDPDRHIERVTELQELFLTRVGLDIGKVWVADDGAAVAVWTTPESVEAGAVFAEIGPRMAELSGSRLAAQQQMEGLLAPHRPKEPAWFLATVGVSPDHQGKGLGSAVVLPGVEAAERAGVPAFLETSAPRNLPFYERLGFTVTADVEVPEGPRTWCMTRKPGA | – | – | – | NFAT-GFP ASSAY Positive Cell lines (coculture with U266 cells): U266 (+/−) |
| 121416-D03 (protein, Synthetic Immune Receptor (SIR)) MALPVTALLLPLALLLHAARPLEQKLISEEDLGSGDRPDPAVYQLRDSKSSDKSVCLFTDFDSQTNVSQSKDSDVYITDKCVLDMRSMDFKSNSAVAWSNKSDFACANAFNNSIIPEDTFFPSPESSCDVKLVEKSFETDTNLNFQNLSVIGFRILLLKVAGFNLLMTLRLWSSSSRAKRSGSGVKQTLNFDLLKLAGDVESNPGPTSMALPVTALLLPLALLLHAARPDYIHVTQSPSSLSVSIGDRVTINCQTSQGVGSDLHWYQHKPGRAPKLLIHHASSVEDGVPSRFSGTGFHTSFNLTINDLQADDIGTYYCQVLQSFGRGSRLDTKGGGGSGGGGSGGGGSRAHLVQSGTAMKKPGASVRVSCQTSGYTFTAHILFWFRQAPGRGLEWVGWIKPQYGAVNFGGGFRDRVTLTRDVYREIAYMDIRGLKPDDTAVYYCARDRSYGDSSWALDAWGQGTTVVVSATRGKPIPNPLLGLDSTGSGEDLKNVFPPEVAVFEPSEAEISHTQKATLVCLATGFYPDHVELSWWVNGKEVHSGVCTDPQPLKEQPALNDSRYCLSSRLRVSATFWQNPRNHFRCQVQFYGLSENDEWTQDRAKPVTQIVSAEAWGRADCGFTSESYQQGVLSATILYEILLGKATLYAVLVSALVLMAMVKRKDSRGRAKRSGSGATNFSLLKQAGDVEENPGPSRGHMTEYKPTVRLATRDDVPRAVRTLAAAFADYPATRHTVDPDRHIERVTELQELFLTRVGLDIGKVWVADDGAAVAVWTTPESVEAGAVFAEIGPRMAELSGSRLAAQQQMEGLLAPHRPKEPAWFLATVGVSPDHQGKGLGSAVVLPGVEAAERAGVPAFLETSAPRNLPFYERLGFTVTADVEVPEGPRTWCMTRKPGA | HL2-3 (+/−), | TF228.1.1.6 (+) | – | – |
| 090116-J01 (protein, Synthetic Immune Receptor (SIR)) MALPVTALLLPLALLLHAARPLEGKPIPNPLLGLDSTGSGEDLKNVFPPEVAVFEPSKAEIAHTQKATLVCLATGFYPDHVELSWWVNGKEVHSGVCTDPQPLKEQPALNDSRYCLSSRLRVSATFWQNPRNHFRCQVQFYGLSENDEWTQDRAKPVTQIVSAEAWGRADCGITSASYHQGVLSATILYEILLGKATLYAVLVSALVLMAMVKRKDSRGRAKRSGSGATNFSLLKQAGDVEENPGPTSMALPVTALLLPLALLLHAARPDIQMTQSPASLSASVGETVTIICRASVNIYSYLAWYQQKQGKSPQLLVYNAKILAEGVPSRFSGSGSGTQFSLKINSLQPEDFGSYYCQHHYGTFTFGSGTKLEIKRGGGGSGGGGSGGGGSQVQLKESGPGLVAPSQSLSITCTISGFSLTSYGVHWVRQPPGKGLEWLVVIWSDGSTTYNSALKSRLSISKDNSKSQVFLKMNSLQTDDTAIYYCASHYGSTLAFASWGHGTLVTVSAATREQKLISEEDGSGIQNPDPAVYQLRDSKSSDKSVCLFTDFDSQTNVSQSKDSDVYITDKCVLDMRSMDFKSNSAVAWSNKSDFACANAFNNSIIPEDTFFPSSDVPCDVKLVEKSFETDTNLNFQNLSVIGFRILLLKVAGFNLLMTLRLWSSRAKRSGSGVKQTLNFDLLKLAGDVESNPGPSRGHMTEYKPTVRLATRDDVPRAVRTLAAAFADYPATRHTVDPDRHIERVTELQELFLTRVGLDIGKVWVADDGAAVAVWTTPESVEAGAVFAEIGPRMAELSGSRLAAQQQMEGLLAPHRPKEPAWFLATVGVSPDHQGKGLGSAVVLPGVEAAERAGVPAFLETSAPRNLPFYERLGFTVTADVEVPEGPRTWCMTRKPGA | – | – | (+) | – |
| 042916-B04 (protein, Synthetic Immune Receptor (SIR)) MALPVTALLLPLALLLHAARPLEGKPIPNPLLGLDSTGSGEDLKNVFPPEVAVFEPSKAEIAHTQKATLVCLATGFYPDHVELSWWVNGKEVHSGVCTDPQPLKEQPALNDSRYCLSSRLRVSATFWQNPRNHFRCQVQFYGLSENDEWTQDRAKPVTQIVSAEAWGRADCGITSASYHQGVLSATILYEILLGKATLYAVLVSALVLMAMVKRKDSRGRAKRSGSGATNFSLLKQAGDVEENPGPTSTMALPVTALLLPLALLLHAARPDIQMTQSPSSLSASVGDRVTITCTASLSVSSTYLHWYQQKPGSSPKLWIYSTSNLASGVPSRFSGSGSGTSYTLTISSLQPEDFATYYCHQYHRSPLTFGGGTKVEIKRGGGGSGGGGSGGGGSEVQLVESGGGLVQPGGSLRLSCAASGFSLTKYGVHWVRQAPGKGLEWVGVKWAGGSTDYNSALMSRFTISKDNAKNSLYLQMNSLRAEDTAVYYCARDHRDAMDYWGQGTLVTVSSTREQKLISEEDGSGIQNPDPAVYQLRDSKSSDKSVCLFTDFDSQTNVSQSKDSDVYITDKCVLDMRSMDFKSNSAVAWSNKSDFACANAFNNSIIPEDTFFPSSDVPCDVKLVEKSFETDTNLNFQNLSVIGFRILLLKVAGFNLLMTLRLWSSRAKRSGSGVKQTLNFDLLKLAGDVESNPGPSRGHMTEYKPTVRLATRDDVPRAVRTLAAAFADYPATRHTVDPDRHIERVTELQELFLTRVGLDIGKVWVADDGAAVAVWTTPESVEAGAVFAEIGPRMAELSGSRLAAQQQMEGLLAPHRPKEPAWFLATVGVSPDHQGKGLGSAVVLPGVEAAERAGVPAFLETSAPRNLPFYERLGFTVTADVEVPEGPRTWCMTRKPGA | – | – | – | NFAT-GFP ASSAY Positive Cell lines (coculture with U87-MG (U87MG) cells): U87MG |
| 110116-J04 (protein, Synthetic Immune Receptor (SIR)) MALPVTALLLPLALLLHAARPLEQKLISEEDLGSGDRPDPAVYQLRDSKSSDKSVCLFTDFDSQTNVSQSKDSDVYITDKCVLDMRSMDFKSNSAVAWSNKSDFACANAFNNSIIPEDTFFPSPESSCDVKLVEKSFETDTNLNFQNLSVIGFRILLLKVAGFNLLMTLRLWSSSSRAKRSGSGVKQTLNFDLLKLAGDVESNPGPTSMALPVTALLLPLALLLHAARPDIQMTQSPASLSASVGETVTIICRASVNIYSYLAWYQQKQGKSPQLLVYNAKILAEGVPSRFSGSGSGTQFSLKINSLQPEDFGSYYCQHHYGTFTFGSGTKLEIKRGGGGSGGGGSGGGGSQVQLKESGPGLVAPSQSLSITCTISGFSLTSYGVHWVRQPPGKGLEWLVVIWSDGSTTYNSALKSRLSISKDNSKSQVFLKMNSLQTDDTAIYYCASHYGSTLAFASWGHGTLVTVSAATRGKPIPNPLLGLDSTGSGEDLKNVFPPEVAVFEPSEAEISHTQKATLVCLATGFYPDHVELSWWVNGKEVHSGVCTDPQPLKEQPALNDSRYCLSSRLRVSATFWQNPRNHFRCQVQFYGLSENDEWTQDRAKPVTQIVSAEAWGRADCGFTSESYQQGVLSATILYEILLGKATLYAVLVSALVLMAMVKRKDSRGRAKRSGSGATNFSLLKQAGDVEENPGPSRGHMTEYKPTVRLATRDDVPRAVRTLAAAFADYPATRHTVDPDRHIERVTELQELFLTRVGLDIGKVWVADDGAAVAVWTTPESVEAGAVFAEIGPRMAELSGSRLAAQQQMEGLLAPHRPKEPAWFLATVGVSPDHQGKGLGSAVVLPGVEAAERAGVPAFLETSAPRNLPFYERLGFTVTADVEVPEGPRTWCMTRKPGA | – | – | (2+) | NFAT-GFP ASSAY Positive Cell lines (coculture with RAJI cells): RAJI (2+), NALM6 |

Reference: patent publication US12269859B2, “Synthetic immune receptors and methods of use thereof” (Angeles Therapeutics, Inc., priority 2016, dated 2025)
